Patent US20140336126A1

Target: GS-TAP-tagged Optn (human) (UniProt Q96CV9)
Experiment: TAP of GS-tagged Optn from HEK-293 cells, LC-MSMS

GS-TAP-tagged Optn (human), sequence (Q96CV9 whole entry E322K): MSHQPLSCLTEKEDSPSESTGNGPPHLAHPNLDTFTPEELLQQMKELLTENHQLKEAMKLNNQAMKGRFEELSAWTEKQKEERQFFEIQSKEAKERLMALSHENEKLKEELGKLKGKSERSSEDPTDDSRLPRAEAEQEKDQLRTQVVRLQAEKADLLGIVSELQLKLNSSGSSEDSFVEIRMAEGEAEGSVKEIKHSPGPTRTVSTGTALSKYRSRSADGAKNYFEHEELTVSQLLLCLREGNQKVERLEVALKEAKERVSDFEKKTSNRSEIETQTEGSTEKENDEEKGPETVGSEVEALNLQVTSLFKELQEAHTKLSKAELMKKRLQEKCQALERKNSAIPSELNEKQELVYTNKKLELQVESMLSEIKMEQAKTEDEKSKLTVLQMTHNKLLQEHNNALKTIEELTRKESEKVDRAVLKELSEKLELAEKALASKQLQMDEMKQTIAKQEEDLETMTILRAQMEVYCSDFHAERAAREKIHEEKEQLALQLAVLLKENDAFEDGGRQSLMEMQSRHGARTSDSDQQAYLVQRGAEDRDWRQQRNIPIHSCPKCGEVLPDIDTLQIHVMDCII
MYOSIN, LIGHT CHAIN 6, ALKALI, SMOOTH MUSCLE AND NON-MUSCLE ISOFORM 1., sequence (P60660 2-151): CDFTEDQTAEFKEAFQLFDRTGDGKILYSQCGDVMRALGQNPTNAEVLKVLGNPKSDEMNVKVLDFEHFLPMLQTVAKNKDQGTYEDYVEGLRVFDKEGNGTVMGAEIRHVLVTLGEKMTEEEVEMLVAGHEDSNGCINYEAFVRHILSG
[..] LIGHT CHAIN 2, [..]., sequence (Q96FJ2 whole entry): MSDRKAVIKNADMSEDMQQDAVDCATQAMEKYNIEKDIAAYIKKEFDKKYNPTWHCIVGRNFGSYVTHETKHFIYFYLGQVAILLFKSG

**Q.** Which sequence coverage does the source give for “ISOFORM 1 OF MYOSIN-10. (from UniProt P35580 1-1976)” here?
**A.** Its sequence coverage is 0.04.

**Q.** And the unique peptide counts?
**A.** The unique peptide counts was 7.

**Q.** What does the source list for “ISOFORM 2 OF ANKYCORBIN. (from UniProt Q9P0K7 1-983)”?
**A.** sequence coverage: 0.12; unique peptide counts: 11

**Q.** How did the sequence coverage turn out when “[..] LIGHT CHAIN 2, [..]. (from UniProt Q96FJ2 1-89)” was run?
**A.** Its sequence coverage is 0.64.

**Q.** And the unique peptide counts?
**A.** The unique peptide counts was 5.

**Q.** What does the source list for “type 1 protein phosphatase catalytic subunit PP1β (from UniProt P62140 1-327) (enzyme)”?
**A.** sequence coverage: 0.2; unique peptide counts: 6

**Q.** How did the sequence coverage turn out when “MYOSIN REGULATORY LIGHT CHAIN. (from UniProt O14950 2-172)” was run?
**A.** The sequence coverage was 0.19.

**Q.** What about the unique peptide counts of the same substance?
**A.** Its unique peptide counts is 3.

**Q.** For “ISOFORM 1 OF MYOSIN PHOSPHATASE RHO-… PROTEIN. (from UniProt Q6WCQ1 2-1025)”, which sequence coverage is on record?
**A.** Its sequence coverage is 0.21.

**Q.** What about the unique peptide counts of the same substance?
**A.** Its unique peptide counts is 17.

**Q.** Which results are given for “ALPHA-ACTININ-4. (from UniProt O43707 1-911)”?
**A.** sequence coverage: 0.02; unique peptide counts: 2

**Q.** Which sequence coverage does the source give for “HEAT SHOCK 70 KDA PROTEIN 1. (from UniProt P0DMV9 2-641)” here?
**A.** The sequence coverage was 0.25.

**Q.** What about the unique peptide counts of the same substance?
**A.** Its unique peptide counts is 17.

**Q.** “PRKC APOPTOSIS WT1 REGULATOR PROTEIN. (from UniProt Q96IZ0 1-340)” was tested. Which sequence coverage did it give?
**A.** The sequence coverage was 0.09.

**Q.** What about the unique peptide counts of the same substance?
**A.** The unique peptide counts was 2.

**Q.** What does the source list for “GUANINE NUCLEOTIDE-BINDING PROTEIN G. (from UniProt P08754 2-354)”?
**A.** sequence coverage: 0.19; unique peptide counts: 6

**Q.** What does the source list for “GALPHAI2 PROTEIN. (from UniProt P04899 2-355)”?
**A.** sequence coverage: 0.15; unique peptide counts: 5

**Q.** What does the source list for “ISOFORM 1 OF MYOSIN IB. (from UniProt O43795 1-1136)”?
**A.** sequence coverage: 0.03; unique peptide counts: 3

**Q.** With FILAMIN 1. (from UniProt P21333 2-2647) as the substance, how does the sequence coverage read?
**A.** Its sequence coverage is 0.05.

**Q.** And the unique peptide counts?
**A.** The unique peptide counts was 10.

**Q.** Which results are given for “ISOFORM SNAP-23A OF SYNAPTOSOMAL-ASSOCIATED PROTEIN 23. (from UniProt O00161 1-211)”?
**A.** sequence coverage: 0.11; unique peptide counts: 2

**Q.** Which sequence coverage does the source give for “COMPLEMENT COMPONENT 1 Q SUBCOMPONENT-BINDING PROTEIN, MITOCHONDRIAL PRECURSOR. (from UniProt Q07021 74-282)” here?
**A.** Its sequence coverage is 0.22.

**Q.** And the unique peptide counts?
**A.** The unique peptide counts was 5.

**Q.** Which sequence coverage does the source give for “DESMOGLEIN 2 PREPROPROTEIN. (from UniProt Q14126 50-1118)” here?
**A.** The sequence coverage was 0.02.

**Q.** What about the unique peptide counts of the same substance?
**A.** The unique peptide counts was 2.

**Q.** “ISOFORM 1 OF HEAT SHOCK COGNATE 71 KDA PROTEIN. (from UniProt P11142 2-646)” was tested. Which sequence coverage did it give?
**A.** The sequence coverage was 0.24.

**Q.** What about the unique peptide counts of the same substance?
**A.** Its unique peptide counts is 14.

**Q.** For “GUANINE NUCLEOTIDE-BINDING PROTEIN G(I)/G(S)/G(T) SUBUNIT BETA 2. (from UniProt P62879 2-340)”, which sequence coverage is on record?
**A.** The sequence coverage was 0.06.

**Q.** What about the unique peptide counts of the same substance?
**A.** Its unique peptide counts is 2.

**Q.** What does the source list for “ISOFORM LONG OF SPECTRIN BETA CHAIN, BRAIN 1. (from UniProt Q01082 2-2364)”?
**A.** sequence coverage: 0.01; unique peptide counts: 2

**Q.** With MYOSIN-9. (from UniProt P35579 2-1960) as the substance, how does the sequence coverage read?
**A.** The sequence coverage was 0.06.

**Q.** And the unique peptide counts?
**A.** Its unique peptide counts is 10.

**Q.** For “STRESS-70 PROTEIN, MITOCHONDRIAL PRECURSOR. (from UniProt P38646 47-679)”, which sequence coverage is on record?
**A.** The sequence coverage was 0.09.

**Q.** What about the unique peptide counts of the same substance?
**A.** Its unique peptide counts is 5.

**Q.** With “PEROX1REDOXIN-1. (from UniProt Q06830 2-199) (enzyme)” as the substance, how does the sequence coverage read?
**A.** The sequence coverage was 0.11.

**Q.** And the unique peptide counts?
**A.** The unique peptide counts was 2.

**Q.** How did the sequence coverage turn out when “HEAT SHOCK 70 KDA PROTEIN 1L. (from UniProt P34931 1-641)” was run?
**A.** The sequence coverage was 0.12.

**Q.** What about the unique peptide counts of the same substance?
**A.** Its unique peptide counts is 7.

**Q.** How did the sequence coverage turn out when “TROPOMYOSIN 1 ALPHA CHAIN ISOFORM 7. (from UniProt P09493 1-284)” was run?
**A.** The sequence coverage was 0.19.

**Q.** And the unique peptide counts?
**A.** The unique peptide counts was 5.

**Q.** Which sequence coverage does the source give for CORONIN-1C. (from UniProt Q9ULV4 1-474) here?
**A.** The sequence coverage was 0.25.

**Q.** And the unique peptide counts?
**A.** Its unique peptide counts is 13.

**Q.** Which sequence coverage does the source give for “HEAT SHOCK 70 KDA PROTEIN 6. (from UniProt P17066 1-643)” here?
**A.** The sequence coverage was 0.12.

**Q.** And the unique peptide counts?
**A.** Its unique peptide counts is 8.

**Q.** What does the source list for “TROPOMYOSIN 4. (from UniProt P67936 2-248)”?
**A.** sequence coverage: 0.18; unique peptide counts: 6

**Q.** “RAS-RELATED PROTEIN RAB-35. (from UniProt Q15286 1-201)” was tested. Which sequence coverage did it give?
**A.** Its sequence coverage is 0.16.

**Q.** What about the unique peptide counts of the same substance?
**A.** Its unique peptide counts is 3.

**Q.** How did the sequence coverage turn out when “ELONGATION FACTOR 1-ALPHA 2. (from UniProt Q05639 2-463)” was run?
**A.** The sequence coverage was 0.06.

**Q.** What about the unique peptide counts of the same substance?
**A.** Its unique peptide counts is 3.

**Q.** Which results are given for “DYNEIN LIGHT CHAIN 1, CYTOPLASMIC. (from UniProt P63167 1-89)”?
**A.** sequence coverage: 0.64; unique peptide counts: 5

**Q.** Which sequence coverage does the source give for “285 KDA PROTEIN. (from UniProt Q13813 1-2472)” here?
**A.** The sequence coverage was 0.03.

**Q.** And the unique peptide counts?
**A.** Its unique peptide counts is 7.

**Q.** Which sequence coverage does the source give for “MYOSIN, LIGHT CHAIN 6, ALKALI, SMOOTH MUSCLE AND NON-MUSCLE ISOFORM 1.” here?
**A.** Its sequence coverage is 0.28.

**Q.** And the unique peptide counts?
**A.** The unique peptide counts was 5.
